From PMC7920882 come the findings set out here.

Among the targets are TRA-CT6ZW-FT; TRA-CT6ZWY; TRA-CT6 mAb^2.
Common to all, as to assay: BLI; reverse outlay: full-length IgG-like constructs (50 ug/mL) loaded on anti-human Fc tips; VEGF in 2-fold dilutions from 500 nM; 25 C, PBS with Kinetic Buffer
The target of test [1] is TRA-CH3_(ZWHY)/CT6_(ZWLY).
Test [2] has as its target TRA-CT6_(ZWHY)/CH3_(ZWLY).

For the substance “VEGF isomer 109 with N75Q mutation (ligand)”, the Kd – broadly, the equilibrium constant for the complex coming apart – is 6.2 nM in test [1]; 1.48 nM with TRA-CT6ZW-FT; 16.6 nM with TRA-CT6ZWY; 16.7 nM in test [2]; 2.78 nM with TRA-CT6 mAb^2.
